Experimental data: PMC5761661 (Biochemistry, 2017)
Where two headings read alike, the source gives them in different places.

How the values were obtained:
[1] = target: IpaD (invasion plasmid antigen D) (Shigella flexneri, UniProt P18013); test: fluorescence polarization, single site saturation fit; format: binding; settings: read-out: Kd (μM) ± SD ^a; labelled compound; 25 nM FITC-DOC, 0-30 μM IpaD, PBS, 23 °C, 30 min
[2] = target: IpaB^28–226-Alexa568 (Shigella flexneri); test: fluorescence polarisation
[3] = target: IpaB^28–226-Alexa568 (Shigella flexneri); test: fluorescence polarisation; remark: listed apart in the source

Substance | Kd [1] [µM] | Kd [2] [nM] | Kd [3] [nM]
FITC-deoxycholate | 9.3 ± 1.8 | – | –
IpaD D144A/N146A/Y149A triple mutant (from UniProt P18013 1-332) (natural protein) | – | 2200 | 7400
IpaD Y149A (from UniProt P18013 1-332) (natural protein) | – | 500 | –
Wild-type IpaD (invasion plasmid antigen D) (from UniProt P18013 1-332) (natural protein) | – | 2000 | –
